Paper PMC8279004

Key:
[1] = target: H4K16ac nucleosome (Xenopus | not stated); assay: native gel or EMSA
[2] = target: unmodified nucleosome (Xenopus); assay: native gel or EMSA

- Kd [1]: 83.3 nM
- Kd [2]: 70.8 nM
Substance: catalytic domain of yeast Dot1 (residues 158 to 582) (from UniProt Q04089 158-582) (domain or fragment)
